B1: Zyxin (Homo sapiens), Q15942 (parent)
chain: MAAPRPSPAISVSVSAPAFYAPQKKFGPVVAPKPKVNPFRPGDSEPPPAPGAQRAQMGRVGEIPPPPPEDFPLPPPPLAGDGDDAEGALGGAFPPPPPPIEESFPPAPLEEEIFPSPPPPPEEEGGPEAPIPPPPQPREKVSSIDLEIDSLSSLLDDMTKNDPFKARVSSGYVPPPVATPFSSKSSTKPAAGGTAPLPPWKSPSSSQPLPQVPAPAQSQTQFHVQPQPQPKPQVQLHVQSQTQPVSLANTQPRGPPASSPAPAPKFSPVTPKFTPVASKFSPGAPGGSGSQPNQKLGHPEALSAGTGSPQPPSFTYAQQREKPRVQEKQHPVPPPAQNQNQVRSPGAPGPLTLKEVEELEQLTQQLMQDMEHPQRQNVAVNELCGRCHQPLARAQPAVRALGQLFHIACFTCHQCAQQLQGQQFYSLEGAPYCEGCYTDTLEKCNTCGEPITDRMLRATGKAYHPHCFTCVVCARPLEGTSFIVDQANRPHCVPDYHKQYAPRCSVCSEPIMPEPGRDETVRVVALDKNFHMKCYKCEDCGKPLSIEADDNGCFPLDGHVLCRKCHTARAQT
B2: Atos homolog protein B (Homo sapiens), Q7L5A3 (parent)
chain: MRHVQAEPSPSSEPEAGPSQPPVRQGALQGGLLMGYSPAGGATSPGVYQVSIFSPPAGTSEPHRALKRQAPSTEGPRELKRGPGLGAREGLPPEEPSTVGLLGPEGPGLGLGVASQHFSHRGLCVVEQRSSVTSSWTSGAWSPPCPPSNASCNTLHTRDWASPDPGGQGSLGESPGPAPPGQLHTLDTDLHSLAQIGGKSPVAGVGNGGSLWPRESPGTANGHSPEHTPPGPGPPGPCPTKRRLLPAGEAPDVSSEEEGPAPRRRRGSLGHPTAANSSDAKATPFWSHLLPGPKEPVLDPTDCGPMGRRLKGARRLKLSPLRSLRKGPGLLSPPSASPVPTPAVSRTLLGNFEESLLRGRFAPSGHIEGFTAEIGASGSYCPQHVTLPVTVTFFDVSEQNAPAPFLGIVDLNPLGRKGYSVPKVGTVQVTLFNPNQTVVKMFLVTFDFSDMPAAHMTFLRHRLFLVPVGEEGNANPTHRLLCYLLHLRFRSSRSGRLSLHGDIRLLFSRRSLELDTGLPYELQAVTEAPHNPRYSPLP
partner: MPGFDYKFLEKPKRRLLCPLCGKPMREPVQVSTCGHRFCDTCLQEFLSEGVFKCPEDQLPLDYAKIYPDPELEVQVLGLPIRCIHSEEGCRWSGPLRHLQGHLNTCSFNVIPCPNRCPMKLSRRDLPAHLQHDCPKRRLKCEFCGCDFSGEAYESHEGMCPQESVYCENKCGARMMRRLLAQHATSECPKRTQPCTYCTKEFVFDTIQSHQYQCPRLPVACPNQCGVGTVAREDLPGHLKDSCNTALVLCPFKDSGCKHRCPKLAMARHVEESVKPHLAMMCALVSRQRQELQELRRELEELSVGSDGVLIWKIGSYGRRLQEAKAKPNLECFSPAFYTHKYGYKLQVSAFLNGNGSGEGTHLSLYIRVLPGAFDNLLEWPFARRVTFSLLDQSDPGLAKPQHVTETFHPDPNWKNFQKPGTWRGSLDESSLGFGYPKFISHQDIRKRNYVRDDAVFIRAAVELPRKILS
B3: Zinc finger protein 786 (Homo sapiens), Q8N393 (parent)
chain: MAEPPRLPLTFEDVAIYFSEQEWQDLEAWQKELYKHVMRSNYETLVSLDDGLPKPELISWIEHGGEPFRKWRESQKSGNIICSSVDMHFDPGFEEQLFWGSQQAMNSGKTKSHFQLDPESQCSFGSFVSFRPDQGITLGSPQRHDARAPPPLACGPSESTLKEGIPGPRNLDLPGLWDVPAWESTQHPWPVCGESCWENNHLVMHQRGHSKDRTRRAWEKFNKRAETQMPWSSPRVQRHFRCGVCGKSFRRKLCLLRHLAAHTGRGPFRNADGEMCFRHELTHPSHRLPQQGEKPAQCTPCGKRSLPVDSTQARRCQHSREGPASWREGRGASSSVHSGQKPGSRLPQEGNSHQEGDTEALQHGAEGPCSCSECGERSPMSARLASPCRAHTGEKPFQCAHCTKRFRLRRLLQVHQHAHGGERPFSCRKCGKGFAKQCKLTEHIRVHSGEKPFRCAKCGRNFRQRGQLLRHQRLHTDEKPFQCPECGLSFRLESMLRAHRLRHGGERPFSCSECGRGFTHQCKLREHLRVHSGERPFQCLKCDKRFRLKGILKAHQHTHSKERPFSCGECGKGFTRQSKLTEHLRVHSGERPFQCPECNRSFRLKGQLLSHQRLHTGERPFQCPECDKRYRVKADMKAHQLLHSGEMPFSCECGKGFVKHSKLIEHIRTHTGEKPFQCPKCDKSFRLKAQLLSHQGLHTGERPFHCPECDKNFRERGHMLRHQRIHRPERPFACGDCGKGFIYKSKLAEHIRVHTKSCPAPNELDIKKRLSQLFAMIEADWS
B4: Transmembrane protein 218 (Homo sapiens), A2RU14 (parent)
chain: MAGTVLGVGAGVFILALLWVAVLLLCVLLSRASGAARFSVIFLFFGAVIITSVLLLFPRAGEFPAPEVEVKIVDDFFIGRYVLLAFLSAIFLGGLFLVLIHYVLEPIYAKPLHSY
partner: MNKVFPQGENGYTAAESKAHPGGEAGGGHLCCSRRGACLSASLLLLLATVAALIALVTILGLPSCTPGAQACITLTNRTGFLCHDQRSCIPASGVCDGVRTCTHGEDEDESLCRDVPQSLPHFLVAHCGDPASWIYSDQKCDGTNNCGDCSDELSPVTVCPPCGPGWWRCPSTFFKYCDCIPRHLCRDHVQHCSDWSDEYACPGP

Variants of: B1
Conditions: with pf21a_human PHF21A

Row | effect of a mutation on the interaction | Variant
1 | with no effect | R167G

Variants of: B2
Conditions: with traf4_human TRAF4, Q9BUZ4

Row | effect of a mutation on the interaction | Variant
2 | disrupting interaction strength | C381Y

Variants of: B3
Conditions: with kr103_human KRTAP10-3, P60369
kr103_human KRTAP10-3, P60369, sequence (P60369 whole entry): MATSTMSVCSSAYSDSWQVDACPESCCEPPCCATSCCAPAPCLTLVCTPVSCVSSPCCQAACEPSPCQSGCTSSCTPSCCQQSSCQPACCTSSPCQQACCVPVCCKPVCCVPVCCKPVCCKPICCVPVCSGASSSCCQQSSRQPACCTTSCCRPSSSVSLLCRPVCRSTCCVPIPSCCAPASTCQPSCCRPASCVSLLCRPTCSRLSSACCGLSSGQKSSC

Row | effect of a mutation on the interaction | Variant
3 | with no effect | V37A

Variants of: B3
Conditions: with kr103_human KRTAP10-3, P60369
Remark: another data set of the same source

Row | effect of a mutation on the interaction | Variant
4 | with no effect | S112R

Variants of: B4
Conditions: with lrad1_human LDLRAD1, Q5T700

Row | effect of a mutation on the interaction | Variant
5 | with no effect | P66S

— IntAct's records for PubMed 29892012
